In patent US20220251236A1 (Boehringer Ingelheim, published 2022):
Where a chain is given by its changes, count along the chain named.

T1: human DLL3 (endogenous, on SCLC cell lines NCI-H82 and SHP77 and in SCLC tissue) (human, UniProt Q9NYJ7 27-618)
T1 construct: whole, on cells; also called SCLC cell lines expressing DLL3
T1 sequence (looked up): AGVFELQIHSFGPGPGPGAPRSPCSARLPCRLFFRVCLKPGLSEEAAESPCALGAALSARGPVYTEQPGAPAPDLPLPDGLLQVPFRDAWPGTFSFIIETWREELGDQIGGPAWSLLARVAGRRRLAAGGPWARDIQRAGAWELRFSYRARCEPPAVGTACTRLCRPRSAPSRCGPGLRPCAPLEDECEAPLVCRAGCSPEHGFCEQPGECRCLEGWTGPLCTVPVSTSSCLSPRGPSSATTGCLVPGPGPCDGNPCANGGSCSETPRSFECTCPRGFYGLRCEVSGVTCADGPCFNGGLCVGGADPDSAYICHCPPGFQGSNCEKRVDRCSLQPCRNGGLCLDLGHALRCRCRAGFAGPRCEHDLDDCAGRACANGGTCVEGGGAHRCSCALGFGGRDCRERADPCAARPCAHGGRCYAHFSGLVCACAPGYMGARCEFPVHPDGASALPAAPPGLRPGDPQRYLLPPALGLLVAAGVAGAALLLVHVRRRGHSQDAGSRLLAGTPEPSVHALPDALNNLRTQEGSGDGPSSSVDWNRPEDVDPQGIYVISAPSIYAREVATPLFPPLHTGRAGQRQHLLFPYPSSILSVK

T2: FLAG-tagged human DLL1 full length (human, UniProt O00548 1-723)
T2 construct: also called human DLL1 on HEK293 cells
T2 sequence: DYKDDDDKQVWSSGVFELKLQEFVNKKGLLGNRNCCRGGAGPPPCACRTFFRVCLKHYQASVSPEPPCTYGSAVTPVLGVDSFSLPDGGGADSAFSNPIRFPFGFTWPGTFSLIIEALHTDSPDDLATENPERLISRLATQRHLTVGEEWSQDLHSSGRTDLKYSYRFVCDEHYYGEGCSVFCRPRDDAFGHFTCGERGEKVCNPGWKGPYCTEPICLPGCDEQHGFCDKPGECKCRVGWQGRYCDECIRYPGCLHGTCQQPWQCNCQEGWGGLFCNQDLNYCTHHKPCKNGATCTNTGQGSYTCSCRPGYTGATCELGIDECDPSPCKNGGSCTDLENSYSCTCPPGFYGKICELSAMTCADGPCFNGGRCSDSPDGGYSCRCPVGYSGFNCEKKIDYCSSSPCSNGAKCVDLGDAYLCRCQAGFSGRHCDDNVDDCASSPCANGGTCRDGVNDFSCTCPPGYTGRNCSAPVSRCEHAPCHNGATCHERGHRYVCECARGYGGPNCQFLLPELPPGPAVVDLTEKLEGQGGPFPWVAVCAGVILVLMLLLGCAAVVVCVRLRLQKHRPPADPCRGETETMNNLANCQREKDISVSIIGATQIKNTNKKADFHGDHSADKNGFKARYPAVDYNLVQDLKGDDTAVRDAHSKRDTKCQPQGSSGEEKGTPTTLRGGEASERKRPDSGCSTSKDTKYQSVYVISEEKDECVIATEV

T3: Human DLL3-His (human, UniProt Q9NYJ7 27-492)
T3 construct: also called huDLL3-His; hu DLL3
T3 sequence: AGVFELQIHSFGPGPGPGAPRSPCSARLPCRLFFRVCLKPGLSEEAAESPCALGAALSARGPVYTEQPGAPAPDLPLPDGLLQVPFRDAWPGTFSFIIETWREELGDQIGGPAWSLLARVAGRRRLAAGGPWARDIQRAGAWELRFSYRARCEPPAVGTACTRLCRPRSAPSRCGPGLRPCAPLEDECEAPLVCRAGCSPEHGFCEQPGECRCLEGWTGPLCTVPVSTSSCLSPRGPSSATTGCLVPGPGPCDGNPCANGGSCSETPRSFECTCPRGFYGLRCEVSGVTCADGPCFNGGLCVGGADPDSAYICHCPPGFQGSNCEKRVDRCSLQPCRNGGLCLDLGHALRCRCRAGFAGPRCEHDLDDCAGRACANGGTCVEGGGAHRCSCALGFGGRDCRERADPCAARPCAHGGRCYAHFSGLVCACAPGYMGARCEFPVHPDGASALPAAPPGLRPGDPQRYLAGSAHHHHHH

B1: DLL3#5/CD3#1 (bispecific antibody, human IgG1, kappa, lambda, L234A L235A)
chain 1: not shown
chain 2: EAVVTQEPSLTVSPGGTVTLTCRSSTGAVTTSNYANWVQEKPGQLPRGLIGGTNKRAPWVPARFSGSLLGGKAALTLSGAQPEDEAEYFCALWYSNLWVFGGGTKLTVLGQPKAAPSVTLFPPSSEELQANKATLVCLISDFYPGAVKVAWKADGSPVNTGVETTTPSKQSNNKYAASSYLSLTPEQWKSHRSYSCQVTHEGSTVEKTVAPAECSGGGGSEGKSSGSGSESKSTEGKSSGSGSESKSTGGGGSEVQLVESGGGLVQPGGSLKLSCAASGFTFNTYAMNWVRQAPGKGLEWVARIRSKYNNYATYYADSVKDRFTISRDDSKNTAYLQMNNLKTEDTAVYYCVRHGNFGNSYVSWFAYWGQGTLVTVSAASTKGPSVFPLAPSSKSTSGGTAALGCLVKDYFPEPVTVSWNSGALTSGVHTFPAVLQSSGLYSLSSVVTVPSSSLGTQTYICNVNHKPSNTKVDKRVEPKSCDKTHTCPPCPAPEAAGGPSVFLFPPKPKDTLMISRTPEVTCVVVDVSHEDPEVKFNWYVDGVEVHNAKTKPREEQYNSTYRVVSVLTVLHQDWLNGKEYKCKVSNKALPAPIEKTISKAKGQPREPQVYTLPPSREEMTKNQVSLSCAVKGFYPSDIAVEWESNGQPENNYKTTPPVLDSDGSFFLVSKLTVDKSRWQQGNVFSCSVMHEALHNRFTQKSLSLSPG
notes: Heterodimer of one DLL3 chain and one CD3 chain (scFab-Fc, knob-in-hole)
B2: DLL3#4/CD3#1 (bispecific antibody, human IgG1, kappa, lambda, L234A L235A)
chain 1: not shown
chain 2: B1 chain 2
notes: as for B1
B3: DLL3#2/CD3#1 (bispecific antibody, human IgG1, kappa, lambda, L234A L235A)
chain 1: DIQMTQSPSAMSASVGDRVTITCRASQGISNYLAWFQQKPGKVPEPLIYAASSLQSGVPSRFSGSGSVTEFTLTISSLQPEDFATYYCLQHNSSPYTFGQGTKLEIKRTVAAPSVFIFPPSDEQLKSGTASVVCLLNNFYPREAKVQWKVDNALQSGNSQESVTEQDSKDSTYSLSSTLTLSKADYEKHKVYACEVTHQGLSSPVTKSFNRGECGGGGSEGKSSGSGSESKSTEGKSSGSGSESKSTGGGGSQVQLVQSGAEVKKPGASVKVSCKASGYTFTSYYMHWVRQAPGQGLEWMGIINPSGGSTSYAQKFQGRVTMTRDTSTSTVYMELSSLRSEDTAVYYCARGEAVGGNYYYYGMDVWGQGTTVTVSSASTKGPSVFPLAPSSKSTSGGTAALGCLVKDYFPEPVTVSWNSGALTSGVHTFPAVLQSSGLYSLSSVVTVPSSSLGTQTYICNVNHKPSNTKVDKRVEPKSCDKTHTCPPCPAPEAAGGPSVFLFPPKPKDTLMISRTPEVTCVVVDVSHEDPEVKFNWYVDGVEVHNAKTKPREEQYNSTYRVVSVLTVLHQDWLNGKEYKCKVSNKALPAPIEKTISKAKGQPREPQVYTLPPSREEMTKNQVSLWCLVKGFYPSDIAVEWESNGQPENNYKTTPPVLDSDGSFFLYSKLTVDKSRWQQGNVFSCSVMHEALHNHYTQKSLSLSPG
chain 2: B1 chain 2
notes: as for B1
B4: DLL3#6/CD3#1 (bispecific antibody, human IgG1, kappa, lambda, L234A L235A)
chain 1: DIQLTQSPSFLSTSVGDRVTITCRASQDISNYFAWYQQKPGKAPKLLIYAASTLQSGVPSRFSGGGSGTEFTLTISSLQPEDFATYYCQQLNSYPYTFGQGTKLEIKRTVAAPSVFIFPPSDEQLKSGTASVVCLLNNFYPREAKVQWKVDNALQSGNSQESVTEQDSKDSTYSLSSTLTLSKADYEKHKVYACEVTHQGLSSPVTKSFNRGECGGGGSEGKSSGSGSESKSTEGKSSGSGSESKSTGGGGSQVQLQESGPGLVKPSETLSLTCTVSGGSISSYFWSWIRQPAGKGLEWIGRIYTSGSTNYNPSLNSRLTMSVDTSKNQFSLKLSSVTAADTAVYYCARRGDWGGFDIWGQGTVVTVSSASTKGPSVFPLAPSSKSTSGGTAALGCLVKDYFPEPVTVSWNSGALTSGVHTFPAVLQSSGLYSLSSVVTVPSSSLGTQTYICNVNHKPSNTKVDKRVEPKSCDKTHTCPPCPAPEAAGGPSVFLFPPKPKDTLMISRTPEVTCVVVDVSHEDPEVKFNWYVDGVEVHNAKTKPREEQYNSTYRVVSVLTVLHQDWLNGKEYKCKVSNKALPAPIEKTISKAKGQPREPQVYTLPPSREEMTKNQVSLWCLVKGFYPSDIAVEWESNGQPENNYKTTPPVLDSDGSFFLYSKLTVDKSRWQQGNVFSCSVMHEALHNHYTQKSLSLSPG
chain 2: B1 chain 2
notes: as for B1
B5: DLL3#3/CD3#1 (bispecific antibody, human IgG1, kappa, lambda, L234A L235A)
chain 1: DIQMTQSPSAMSASVGDRVTITCRASQGISNYLVWFQQKPGKAPKRLIYAVSSLYSGVPSRFSGSGSGTEFTLTISSLQPEDFATYYCLQHDSYPYTFGQGTKLEIKRTVAAPSVFIFPPSDEQLKSGTASVVCLLNNFYPREAKVQWKVDNALQSGNSQESVTEQDSKDSTYSLSSTLTLSKADYEKHKVYACEVTHQGLSSPVTKSFNRGECGGGGSEGKSSGSGSESKSTEGKSSGSGSESKSTGGGGSQVQLVQSGAEVKKPGASVKVSCKASGYTFTSYYVHWVRQAPGQGLEWMVIINPGGGTTSYAQKFLGRVTMTRDTSTNTVYMELKSLRSEDTAVYYCARGEAVTGNYFYYGMDVWGQGTTVTVSSASTKGPSVFPLAPSSKSTSGGTAALGCLVKDYFPEPVTVSWNSGALTSGVHTFPAVLQSSGLYSLSSVVTVPSSSLGTQTYICNVNHKPSNTKVDKRVEPKSCDKTHTCPPCPAPEAAGGPSVFLFPPKPKDTLMISRTPEVTCVVVDVSHEDPEVKFNWYVDGVEVHNAKTKPREEQYNSTYRVVSVLTVLHQDWLNGKEYKCKVSNKALPAPIEKTISKAKGQPREPQVYTLPPSREEMTKNQVSLWCLVKGFYPSDIAVEWESNGQPENNYKTTPPVLDSDGSFFLYSKLTVDKSRWQQGNVFSCSVMHEALHNHYTQKSLSLSPG
chain 2: B1 chain 2
notes: as for B1
B6: DLL3#3/CD3#2 (bispecific antibody, human IgG1, kappa, lambda, L234A L235A)
chain 1: B5 chain 1
chain 2: B1 chain 2 with N309I
notes: as for B1

molecular target: T1, human DLL3 (endogenous, on SCLC cell …); test: flow cytometry titration on NCI-H82 cells, PE anti-human secondary, x-fold over background
Excerpt: Cells (T cells or human SCLC cells) were stained with increasing concentrations of two-step purified DLL3/CD3 binding proteins with increasing concentrations in FACS buffer (PBS/0.5% BSA/0.05% sodium azide). Bound molecules were detected with PE-conjugated anti-human secondary antibody (Sigma-Aldrich, #P8047).

Row | Binder | EC50 (read off the curve) [nM]
1 | B1 | ~5
2 | B2 | ~1

molecular target: T2, FLAG-tagged human DLL1 full length; test: flow cytometry on HEK293 cells expressing human DLL1 (HEK293-huDLL1), PE anti-human secondary, control: secondary antibody only
Experimental: (§1) Bound molecules were detected with PE-conjugated anti-human secondary antibody (Sigma-Aldrich, #P8047). As negative control, cells were incubated with secondary antibody only. The samples were measured by flow-cytometry.

Row | Binder | binding result
3 | B3 | no binding (tested: 1.6 nM)
4 | B1 | no binding (tested: 1.6 nM)
5 | B4 | no binding (tested: 1.6 nM)
6 | B2 | no binding (tested: 1.6 nM)
7 | B5 | no binding (tested: 1.6 nM)
8 | B6 | no binding (tested: 1.6 nM)

molecular target: T4, FLAG-tagged human DLL4 full length (human, UniProt Q9NR61 1-685); test: flow cytometry on HEK293 cells expressing human DLL4 (HEK293-huDLL4), PE anti-human secondary, control: secondary antibody only
T4 construct: also called human DLL4 on HEK293 cells
Experimental: as §1

T4 sequence (Q9NR61 other isoform, or with tags, fused parts or gaps limits assumed): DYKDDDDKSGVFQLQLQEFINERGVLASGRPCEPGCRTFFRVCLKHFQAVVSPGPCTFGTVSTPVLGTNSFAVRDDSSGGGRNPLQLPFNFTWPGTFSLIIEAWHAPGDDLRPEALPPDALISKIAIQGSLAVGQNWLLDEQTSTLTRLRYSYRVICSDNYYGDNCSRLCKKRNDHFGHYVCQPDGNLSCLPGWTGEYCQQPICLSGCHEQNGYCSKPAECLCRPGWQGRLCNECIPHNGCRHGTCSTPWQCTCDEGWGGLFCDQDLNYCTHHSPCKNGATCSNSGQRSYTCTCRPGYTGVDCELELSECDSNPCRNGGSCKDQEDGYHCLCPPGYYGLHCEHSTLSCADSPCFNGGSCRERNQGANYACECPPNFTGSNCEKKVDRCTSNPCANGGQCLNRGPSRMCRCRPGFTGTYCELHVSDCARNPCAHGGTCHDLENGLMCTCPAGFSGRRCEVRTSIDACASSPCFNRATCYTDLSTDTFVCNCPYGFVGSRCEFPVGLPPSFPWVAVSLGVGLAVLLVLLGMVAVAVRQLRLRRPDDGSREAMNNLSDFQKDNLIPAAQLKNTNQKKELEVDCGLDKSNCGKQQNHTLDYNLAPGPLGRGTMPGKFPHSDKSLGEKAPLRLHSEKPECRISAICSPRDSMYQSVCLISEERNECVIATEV

Row | Binder | binding result
9 | B3 | no binding (tested: 1.6 nM)
10 | B1 | no binding (tested: 1.6 nM)
11 | B4 | no binding (tested: 1.6 nM)
12 | B2 | no binding (tested: 1.6 nM)
13 | B5 | no binding (tested: 1.6 nM)
14 | B6 | no binding (tested: 1.6 nM)

molecular target: T5, Human CD3 E+G HuFc-6xHis (human); test: SPR (ProteOn XPR36), HuCD3E_HuCD3G-Fc amine-coupled, bispecific as analyte, Example 4B
T5 construct: also called hu CD3εγ-Fc
Procedure, shortened: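 Human CD3ε/γ-Fc fusion is amine-coupled to the chip at pH 4.5. Anti-DLL3/CD3 bispecifics are injected as analyte in PBS-T-EDTA at 30 μl/min, with 600 s association and 1800 s dissociation. Binding kinetics are measured by SPR.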

T5 sequence (chain, as listed by the source limits assumed): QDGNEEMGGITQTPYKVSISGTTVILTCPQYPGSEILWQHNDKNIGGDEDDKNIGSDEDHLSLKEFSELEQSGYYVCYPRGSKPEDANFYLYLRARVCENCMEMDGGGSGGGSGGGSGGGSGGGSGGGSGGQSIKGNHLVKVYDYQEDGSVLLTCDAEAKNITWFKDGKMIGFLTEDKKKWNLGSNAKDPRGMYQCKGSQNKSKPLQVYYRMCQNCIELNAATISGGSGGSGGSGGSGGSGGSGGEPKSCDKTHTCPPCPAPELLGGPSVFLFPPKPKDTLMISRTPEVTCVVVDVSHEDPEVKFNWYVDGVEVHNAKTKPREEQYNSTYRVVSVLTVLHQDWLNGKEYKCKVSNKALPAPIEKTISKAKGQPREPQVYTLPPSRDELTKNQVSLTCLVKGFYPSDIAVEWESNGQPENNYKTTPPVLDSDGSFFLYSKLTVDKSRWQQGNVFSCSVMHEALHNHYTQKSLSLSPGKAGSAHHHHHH

Row | Binder | Kd [nM]
15 | B3 | 3
16 | B1 | 3
17 | B4 | 2
18 | B2 | 2
19 | B5 | 2
20 | B6 | 7

molecular target: T3, Human DLL3-His; test: SPR (ProteOn XPR36), bispecific captured on protein A/G, hu DLL3 as analyte, Example 4B
Procedure, shortened: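 Bispecific constructs captured on protein A/G for 200 s at 30 μl/min, baseline stabilized with PBS-T-EDTA. Human DLL3 analyte injected 300 s at 30 μl/min; dissociation followed for 1800 s.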

Row | Binder | Kd [nM]
21 | B3 | 0.091
22 | B1 | < 0.02
23 | B4 | 0.152
24 | B2 | < 0.02
25 | B5 | 0.075
26 | B6 | 0.12
